± gives the uncertainty stated by the source.
B1: Gamma-crystallin S, residues 96 to 176; numbered along this chain, P22914 (parent)
chain: IQIFEKGDFSGQMYETTEDCPSIMEQFHMREIHSCKVLEGVWIFYELPNYRGRQYLLDKKEYRKPIDWGAASPAVQSFRRI

Variants of: B1
Experiment: abundance fitness (aPCA) (normalised: wild type 0, dead -1); higher = more abundant; growth selection in yeast, the domain comes from the species named
Details: Homo sapiens

Row | Variant | abundance fitness
1 | IQIFEKGDFSGQMYETTEDCPSIMEQFHMREIHSCKVLEGVWIFYELPNYRGRQYLLDKKEYRKPIDWGAASPQVQSFRRI [A74Q] | 0.034 ± 0.17
2 | IQIFEKGDFSGQMYETTEDCPSIMEQFHMREIHSCKVLEGVWIFYELPNYRGRQYLLDKKEYRKPIDWGAASPAVQSKRRI [F78K] | -0.771 ± 0.38
3 | IQIFEKGDFSGQMYETTEDCPSIMEQFHMREIHSCKVLEGVWIFYELPNYRGRIYLLDKKEYRKPIDWGAASPAVQSFRRI [Q54I] | -0.045 ± 0.14
4 | IQIFEKGDFSGQMYETTEDCPSIMEQFHMREIHICKVLEGVWIFYELPNYRGRQYLLDKKEYRKPIDWGAASPAVQSFRRI [S34I] | -0.844 ± 0.34
5 | IQIFEKGDFSGQMYETTEDCPSIMEQFHMREIHSCKVLEGVWIFYELPNYRGRQYLLDKKMYRKPIDWGAASPAVQSFRRI [E61M] | -0.028 ± 0.41
6 | IQIFEKGDFSGQMYETTEDCPSIMEQFHMREIHSCKVLEGVWIFYETPNYRGRQYLLDKKEYRKPIDWGAASPAVQSFRRI [L47T] | -0.285 ± 0.1
7 | IQIFEKGDFSGQMYETTEDCPSIMEQFHTREIHSCKVLEGVWIFYELPNYRGRQYLLDKKEYRKPIDWGAASPAVQSFRRI [M29T] | 0.109 ± 0.09
8 | IQIFEKGDFSGQMYETTEDCPSIMEQFHPREIHSCKVLEGVWIFYELPNYRGRQYLLDKKEYRKPIDWGAASPAVQSFRRI [M29P] | 0.058 ± 0.079
9 | IQIFEKGDFSGQMYETTEDCPSIMEQFHIREIHSCKVLEGVWIFYELPNYRGRQYLLDKKEYRKPIDWGAASPAVQSFRRI [M29I] | -0.015 ± 0.11
10 | IQIFEKGDFSGQMYETTEDCPSIMEQFHDREIHSCKVLEGVWIFYELPNYRGRQYLLDKKEYRKPIDWGAASPAVQSFRRI [M29D] | 0.034 ± 0.09
11 | IQIFEKGDFSGQMYETTEDCPSIMEQFHMREIHSCKVLEGVWIFYELPNNRGRQYLLDKKEYRKPIDWGAASPAVQSFRRI [Y50N] | -0.567 ± 0.087
12 | IQIFEKGDFSGQMYETTEDCPSIMEQFHMREIHSCKVKEGVWIFYELPNYRGRQYLLDKKEYRKPIDWGAASPAVQSFRRI [L38K] | -0.016 ± 0.075
13 | IQIFEKGDFSGQMYETTPDCPSIMEQFHMREIHSCKVLEGVWIFYELPNYRGRQYLLDKKEYRKPIDWGAASPAVQSFRRI [E18P] | -0.067 ± 0.087
14 | IQIFEKGDFSGQMYETTEDCPSIMEQFFMREIHSCKVLEGVWIFYELPNYRGRQYLLDKKEYRKPIDWGAASPAVQSFRRI [H28F] | 0.332 ± 0.26
15 | IQIFEKGDFSGQMYETTEDCPSIMEQFHMREIHSCFVLEGVWIFYELPNYRGRQYLLDKKEYRKPIDWGAASPAVQSFRRI [K36F] | 0.1 ± 0.073
16 | IRIFEKGDFSGQMYETTEDCPSIMEQFHMREIHSCKVLEGVWIFYELPNYRGRQYLLDKKEYRKPIDWGAASPAVQSFRRI [Q2R] | 0.027 ± 0.04
17 | IQIFEKGDFSGQMYETTEDCISIMEQFHMREIHSCKVLEGVWIFYELPNYRGRQYLLDKKEYRKPIDWGAASPAVQSFRRI [P21I] | -0.053 ± 0.12

Row | Variant | abundance fitness
18 | IQIFEKGDFSGQMYETTEDCPSIMEQFHMHEIHSCKVLEGVWIFYELPNYRGRQYLLDKKEYRKPIDWGAASPAVQSFRRI [R30H] | 0.026 ± 0.095
19 | IQIFEKGDFSGHMYETTEDCPSIMEQFHMREIHSCKVLEGVWIFYELPNYRGRQYLLDKKEYRKPIDWGAASPAVQSFRRI [Q12H] | -0.04 ± 0.12
20 | IQIFEKGDFSGQMYETTEDCPSIMEQFHMREIHSCKVLEGVWIFYELPNYRGRQYLLDKKEYRKPISWGAASPAVQSFRRI [D67S] | 0.037 ± 0.11
21 | IQIFEKGDFSGQFYETTEDCPSIMEQFHMREIHSCKVLEGVWIFYELPNYRGRQYLLDKKEYRKPIDWGAASPAVQSFRRI [M13F] | -0.04 ± 0.14
22 | IQIFEKGDFSGQEYETTEDCPSIMEQFHMREIHSCKVLEGVWIFYELPNYRGRQYLLDKKEYRKPIDWGAASPAVQSFRRI [M13E] | 0.028 ± 0.061
23 | IQIFEKGDFSGQMYETTEDCPSIMEQFHMREIHSCKVLEGVWIFYELPNYEGRQYLLDKKEYRKPIDWGAASPAVQSFRRI [R51E] | 0.037 ± 0.072
24 | IQIFEKGDFSGQMYRTTEDCPSIMEQFHMREIHSCKVLEGVWIFYELPNYRGRQYLLDKKEYRKPIDWGAASPAVQSFRRI [E15R] | -0.057 ± 0.053
25 | IQIFEKGDFSGQMYETTEDCPSIMEQFHMREIHSCKVLEGVWIFYELPNYRGRQYLLDKKEYRKPIDWGAGSPAVQSFRRI [A71G] | 0.01 ± 0.14
26 | IQIFEKGDFSGQMYETTEDCPSIMEQFHMREIHSCKVLEGVWIFYELPNYRGRQYLLDKKEYRKPIDWGAASPAVQSFRHI [R80H] | -0.573 ± 0.33
27 | IQIFEKGDFSGQMYETTEDCPSIMEQFHMREIHSCKVLEGVDIFYELPNYRGRQYLLDKKEYRKPIDWGAASPAVQSFRRI [W42D] | -1.06 ± 0.32
28 | IQIFEKGDFSGQMYETAEDCPSIMEQFHMREIHSCKVLEGVWIFYELPNYRGRQYLLDKKEYRKPIDWGAASPAVQSFRRI [T17A] | 0.022 ± 0.053
29 | IQIFEKGDFSGQMYETTEDCPSIMWQFHMREIHSCKVLEGVWIFYELPNYRGRQYLLDKKEYRKPIDWGAASPAVQSFRRI [E25W] | -0.434 ± 0.35
30 | IQIFEKGDFSGQMYETTEDCPSIMEQFHMREIHSCKVLEGVWIFYELPNYRGRQYLLDKKEYRKRIDWGAASPAVQSFRRI [P65R] | 0.033 ± 0.11
31 | IQIFEKGDFSGQMYETTEDCPSIMEQFHMREIHSCKVLEGVWIFYELPNYRGRQYLLDKKEYRKLIDWGAASPAVQSFRRI [P65L] | -0.064 ± 0.12
32 | IQIFEKGDFSGQMYETTEDCPSILEQFHMREIHSCKVLEGVWIFYELPNYRGRQYLLDKKEYRKPIDWGAASPAVQSFRRI [M24L] | 0.002 ± 0.06
33 | IQIFEKGDFSGQMYETTEDSPSIMEQFHMREIHSCKVLEGVWIFYELPNYRGRQYLLDKKEYRKPIDWGAASPAVQSFRRI [C20S] | -0.054 ± 0.052
34 | IQIFEKGDFSGQMYETTEDCPSIMEQFHMREIHSCKVLEGVWIFYELGNYRGRQYLLDKKEYRKPIDWGAASPAVQSFRRI [P48G] | -0.147 ± 0.058

From the Human Domainome abundance scans (Beltran et al. 2025)
